Assay results: US20090155833A1 (TEIJIN PHARMA, published 2009)

Target: T1, mouse GPR12 (mouse, UniProt P35412 1-334)
T1 sequence: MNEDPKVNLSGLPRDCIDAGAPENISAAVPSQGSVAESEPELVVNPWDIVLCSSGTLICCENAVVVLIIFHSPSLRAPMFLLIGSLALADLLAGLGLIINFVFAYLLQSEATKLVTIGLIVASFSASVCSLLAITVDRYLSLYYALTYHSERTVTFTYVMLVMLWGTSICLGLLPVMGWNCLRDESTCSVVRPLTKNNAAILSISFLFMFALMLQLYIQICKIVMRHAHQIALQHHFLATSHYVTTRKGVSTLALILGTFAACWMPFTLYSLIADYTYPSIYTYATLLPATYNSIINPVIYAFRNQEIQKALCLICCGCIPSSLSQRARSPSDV
Assay: cell-based or functional assay

PDTGLYYDEYLKQVIDVLETDKHFREKLQK [Nesfatin-1M30]
intracellular cAMP level (Fold against the (-) group), CHO-K1-GPR12 cells, 10^-9 M peptide with 10^-5 M Forskolin: ~5 fold
